According to PMC4055408, “The Transcription Factor TFII-I Promotes DNA Translesion Synthesis and Genomic Stability” (PLoS Genetics, 2014):

B1: Rev3L RBM (residues 1847–1898) (domain or fragment, human, UniProt O60673 1847-1898, looked up)
chain: MLTPTPDSSPRSTSSPSQSKNGSFTPRTANILKPLMSPPSREEIMATLLDHD
notes: The Rev3L chain of m12; also called Rev3L fragment; source: recombinant, purified together with His6-Rev7 R124A; prepared as previously described
B2: TFII-I^1–667 fragment (domain or fragment, human, UniProt P78347 1-667, looked up)
chain: MAQVAMSTLPVEDEESSESRMVVTFLMSALESMCKELAKSKAEVACIAVYETDVFVVGTERGRAFVNTRKDFQKDFVKYCVEEEEKAAEMHKMKSTTQANRMSVDAVEIETLRKTVEDYFCFCYGKALGKSTVVPVPYEKMLRDQSAVVVQGLPEGVAFKHPENYDLATLKWILENKAGISFIIKRPFLEPKKHVGGRVMVTDADRSILSPGGSCGPIKVKTEPTEDSGISLEMAAVTVKEESEDPDYYQYNIQAGPSETDDVDEKQPLSKPLQGSHHSSEGNEGTEMEVPAEDSTQHVPSETSEDPEVEVTIEDDDYSPPSKRPKANELPQPPVPEPANAGKRKVREFNFEKWNARITDLRKQVEELFERKYAQAIKAKGPVTIPYPLFQSHVEDLYVEGLPEGIPFRRPSTYGIPRLERILLAKERIRFVIKKHELLNSTREDLQLDKPASGVKEEWYARITKLRKMVDQLFCKKFAEALGSTEAKAVPYQKFEAHPNDLYVEGLPENIPFRSPSWYGIPRLEKIIQVGNRIKFVIKRPELLTHSTTEVTQPRTNTPVKEDWNVRITKLRKQVEEIFNLKFAQALGLTEAVKVPYPVFESNPEFLYVEGLPEGIPFRSPTWFGIPRLERIVRGSNKIKFVVKKPELVISYLPPGMASKINTKALQ
notes: source: bacteria, GST fusion, purified (glutathione-Sepharose 4B, PreScission, anion exchange, size exclusion)
B3: TFII-I fragment (residues 350–667) containing R2-R4 (domain or fragment, human, UniProt P78347 350-667, looked up)
chain: NFEKWNARITDLRKQVEELFERKYAQAIKAKGPVTIPYPLFQSHVEDLYVEGLPEGIPFRRPSTYGIPRLERILLAKERIRFVIKKHELLNSTREDLQLDKPASGVKEEWYARITKLRKMVDQLFCKKFAEALGSTEAKAVPYQKFEAHPNDLYVEGLPENIPFRSPSWYGIPRLEKIIQVGNRIKFVIKRPELLTHSTTEVTQPRTNTPVKEDWNVRITKLRKQVEEIFNLKFAQALGLTEAVKVPYPVFESNPEFLYVEGLPEGIPFRSPTWFGIPRLERIVRGSNKIKFVVKKPELVISYLPPGMASKINTKALQ
notes: as for B2
B4: Rev1 CTD (residues 1140–1251) (domain or fragment, human, UniProt Q9UBZ9 1140-1251, looked up)
chain: GLSSLQSDPAGCVRPPAPNLAGAVEFNDVKTLLREWITTISDPMEEDILQVVKYCTDLIEEKDLEKLDLVIKYMKRLMQQSVESVWNMAFDFILDNVQVVLQQTYGSTLKVT
notes: Rev1 C-terminal domain, residues 1140-1251; also called C-terminal domain (CTD) of Rev1; source: bacteria, GST fusion, purified (glutathione-Sepharose 4B, PreScission, anion exchange, size exclusion)

What was measured:
His6-Rev7 R124A = molecular target: T1, His6-Rev7 R124A (human, UniProt Q9UI95 1-211, R124A); test: SEC; purified recombinant proteins mixed (1:1:1 molar ratios for Figure 1E) and fractionated on Superdex 200 10/300 GL; fractions on SDS-PAGE, Coomassie; conditions: both partners purified
T1 construct: human Rev7 with R124A (disrupts Rev7 dimerization); The Rev7 chain of m12, written alone for the pairs that touch inside the reconstituted complexes; source: prepared as previously described

[1] = molecular target: the molecule itself; test: SEC; single purified TFII-I fragments fractionated on Superdex 200; apparent molecular mass against standards; monomer or homodimer
[2] = molecular target: T2, Rev7 R124A–Rev3L (residues 1847–1898) complex (human, UniProt Q9UI95 1-211; O60673 1847-1898, R124A); test: SEC; purified recombinant proteins mixed (1:1:1 molar ratios for Figure 1E) and fractionated on Superdex 200 10/300 GL; fractions on SDS-PAGE, Coomassie; conditions: both partners purified
T2 construct: human Rev7 with R124A (disrupts Rev7 dimerization); also called Rev7–Rev3L; source: recombinant, purified; prepared as previously described; copies: 1 + 1
T2 sequence (Q9UI95 whole entry R124A, the tested form may be a part, one chain of several): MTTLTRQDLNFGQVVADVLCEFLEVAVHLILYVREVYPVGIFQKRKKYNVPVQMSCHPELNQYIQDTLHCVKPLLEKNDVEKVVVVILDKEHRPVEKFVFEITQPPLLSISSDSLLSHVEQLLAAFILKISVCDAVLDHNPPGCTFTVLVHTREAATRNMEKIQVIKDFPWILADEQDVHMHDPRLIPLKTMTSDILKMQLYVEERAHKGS

T1 sequence (Q9UI95 whole entry R124A): as the sequence (Q9UI95 whole entry R124A, the tested form may be a part, one chain of several) above

Binder | stoichiometry N [2] | other results
B1 | – | binding result (His6-Rev7 R124A): binds
B2 | – | stoichiometry N [1]: 2
B3 | 1 | –
B4 | 1 | –
